T1: Human EPCAM (Epithelial Cell Adhesion Molecule) on EPCAM-positive Lovo cells (human, UniProt P16422 24-314)
T1 sequence (looked up): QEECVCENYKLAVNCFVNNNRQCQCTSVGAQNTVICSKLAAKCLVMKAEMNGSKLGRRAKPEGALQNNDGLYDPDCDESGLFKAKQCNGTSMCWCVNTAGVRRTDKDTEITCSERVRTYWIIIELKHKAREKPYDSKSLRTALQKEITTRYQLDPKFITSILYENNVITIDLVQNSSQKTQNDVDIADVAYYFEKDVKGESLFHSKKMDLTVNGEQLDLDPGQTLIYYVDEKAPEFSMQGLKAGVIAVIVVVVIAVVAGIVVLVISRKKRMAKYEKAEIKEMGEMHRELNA


Legend:
[1] = molecular target: T1, Human EPCAM (Epithelial Cell Adhesion …); assay: cell-based or functional assay
[2] = molecular target: T2, Human CD3 epsilon chain on CD3-positive T cells (human, UniProt P07766 23-207); assay: FACS on T cells
T2 construct: whole, on cells; also called CD3 antigen

[3] = molecular target: T1, Human EPCAM (Epithelial Cell Adhesion …); assay: FACS on EPCAM-positive cells

T2 sequence (P07766 23-207): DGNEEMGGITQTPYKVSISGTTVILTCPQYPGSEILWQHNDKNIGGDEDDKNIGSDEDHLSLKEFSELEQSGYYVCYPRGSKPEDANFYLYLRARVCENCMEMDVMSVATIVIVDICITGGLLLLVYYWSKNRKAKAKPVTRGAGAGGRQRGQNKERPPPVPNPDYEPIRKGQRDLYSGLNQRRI

Binder | EC50 based on IFN-gamma secretion [1] [ng/mL] | binding result [2] | binding result [3]
Humanized EPCAM ScFv-linker-CD3 ScFv-His tag (BITE) antibody PBM0065 (FIG. 1B structure) (bispecific antibody) scFv: QVQLVQSGSELKKPGASVKVSCKASGYTFTNYGMNWVRQAPGQGLEWMGWINTYTGEPTYADDFKGRFVFSLDTSVSTAYLQISSLKAEDTAVYYCARWLRDFDYWGAGTTVTVSSGGGGSGGGGSGGGGSEIVLTQSPATLSLSPGERATLSCSASSSISYMHWYQQKPGQAPRLLIYDTSKLATGIPARFSGSGSGTDFTLTISSLEPEDFAVYYCHQRSSYPYTFGGGTKLEIKGGGGSGGGGSGGGGSEVQLLESGGGLVQPGGSLRLSCAASGFTFSTYAMNWVRQAPGKGLEWVSRIRSKYNNYATYYADSVKGRFTISRDDSKNTLYLQMNSLRAEDTAVYYCVRHGNFGNSYVSWFAYWGQGTLVTVSSGGGGSGGGGSGGGGSQAVVTQEPSLTVSPGGTVTLTCGSSTGAVTTSNYANWVQEKPGQAFRGLIGGTNKRAPGTPARFSGSLLGGKAALTLSGAQPEDEAEYYCALWYSNLWVFGGGTKLTVLHHHHHH | 5.28 |  | 
Humanized EPCAM-CD3 bivalent CrossFAB knob-in-hole bispecific antibody PBM005 (FIG. 1A structure) (bispecific antibody, Four constructs co-transfected in 293S cells at 2:1:1:1; Supernatant or protein A purified antibody was used; also called EPCAM-CROSS-FAB-CD3 Knob in hole (KIH) CrossFAB format antibody; EpCAM-CD3 CrossMab knob-in-hole) light: EIVLTQSPATLSLSPGERATLSCSASSSISYMHWYQQKPGQAPRLLIYDTSKLATGIPARFSGSGSGTDFTLTISSLEPEDFAVYYCHQRSSYPYTFGGGTKLEIKRTVAAPSVFIFPPSDEQLKSGTASVVCLLNNFYPREAKVQWKVDNALQSGNSQESVTEQDSKDSTYSLSSTLTLSKADYEKHKVYACEVTHQGLSSPVTKSFNRGEC QAVVTQEPSLTVSPGGTVTLTCGSSTGAVTTSNYANWVQEKPGQAFRGLIGGTNKRAPGTPARFSGSLLGGKAALTLSGAQPEDEAEYYCALWYSNLWVFGGGTKLTVLSSASTKGPSVFPLAPSSKSTSGGTAALGCLVKDYFPEPVTVSWNSGALTSGVHTFPAVLQSSGLYSLSSVVTVPSSSLGTQTYICNVNHKPSNTKVDKKVEPKSC heavy 1: not shown heavy 2: QVQLVQSGSELKKPGASVKVSCKASGYTFTNYGMNWVRQAPGQGLEWMGWINTYTGEPTYADDFKGRFVFSLDTSVSTAYLQISSLKAEDTAVYYCARWLRDFDYWGAGTTVTVSSTKGPSVFPLAPSSKSTSGGTAALGCLVKDYFPEPVTVSWNSGALTSGVHTFPAVLQSSGLYSLSSVVTVPSSSLGTQTYICNVNHKPSNTKVDKKVEPKSCDKTHTCPPCPAPEAAGGPSVFLFPPKPKDTLMISRTPEVTCVVVDVSHEDPEVKFNWYVDGVEVHNAKTKPREEQYNSTYRVVSVLTVLHQDWLNGKEYKCKVSNKALGAPIEKTISKAKGQPREPQVCTLPPSRDELTKNQVSLSCAVKGFYPSDIAVEWESNGQPENNYKTTPPVLDSDGSFFLVSKLTVDKSRWQQGNVFSCSVMHEALHNHYTQKSLSLSPGK |  | binds | binds

Source: patent publication US20250388695A1 (PROMAB BIOTECHNOLOGIES, published 2025)
